Test: label from the status in PepcDB records

Sequence	protein production
MGTRRRRGRKAIAGLPGYLLLLVLVLVWLFQELRPGPVPPAETGEAEVYFMPEEGPRAKARLLALMDGARESLEGAFYEFRDLEVAQGLLRAKARGVRVRLYGESDYREDFRRYLVAASLGQREEPPRVRFAELKERVKPLSLDCEEVVGIPICYDEREGFMHHKFLVVDGRAVWTGSTNMTWNAFARNNENSLLLPSPTLAQGYAREFEALFGGQKEGLGQPVAFALEGVEGVAYFSPRGGRLAREALLKRLSEAQREVLVAAFVLTDREVLEALLQARRRGAEVKVLLETRNLGTSREEALLEEGLEVRQDANPYTMHHKVMLLDGTYVVTGSYNFSVRAHEVNNENLLVLKSPSLAERYRKEVLRLWEAGSPL	failed
MKKKKVIASIVAVCFSLALLSTWVMIFGCMKRGEQELHANTSVEIPDMSSIPGCVQNGGQLMYRGNIYKYDPANINILFMGIDARGEDESIGQADMLALVVINTEKDTVKCICINRDSIGPVAIYDISGKAATTKNVQIALAYSYGKSQSEGRGLEMNTVSKLLHGIPIHGSVSVDIDGIGGINELAGGITLTALEDVPKAGIVKGEEVTLNDEQAMYYVTERDSASTDIGTNENRMSRQKQYISAWCDAVQQQIKKNPFKIFKMYDSVQGYVDTDISRNSMLYLAKVLKRVQFGEGDIYTVSGDYERENYYDKYLIDEDKLTEMMIETFYRKTE	failed
MKDLLKWKFVETLDFLFDMDKYGRQMLFLQERGRMKLMEGFAVEFRGDGWDNDLASYCGKIVECSWDKEKKVWVSLRIRVDKSKPNGIGTGRSVIKCIEDDLTKEVLLKEIKEIILLP	not failed
MSLTTYDTQPSTLIRNAAAIMTGGRGTADDPSRVPGPDIRIVGDTIDAIGALAPRPGETIVDATDCVIYPAWVNTHHHLFQSLLKGEPAGLDATLTPWLAATPYRFRALFDERRFRLAARIGLIELARSGCATVADHNYVYYPGMPFDSSAILFEEAEKLGLRFVLLRGGATQTRQLEADLPTALRPETLDAYVADIERLAARYHDASPRAMRRVVMAPTTVLYSISPREMRETAAVARRLGLRMHSHLSETVGYQDSAYSMYGKSPVAFCGEHDWLGSDVWYAHLVKVDADEIALLAQTGTGVAHCPQSNGRLGSGICPVREMADAGVPVSIGVDGAASNEAADMISEVHMTWLAQRARLGMLAQPAYRGGSFEGGAGAASIAEVIHWGTAGGARVMGLDEVGKVAVGYAADIAVYRLDDPRYFGLHDPAIGPVASGGRPSVMALFSAGKRVVVDDLIEGVDIKELGGEARRVVRELLREVVVEGHHHHHH	not failed
MASFQQYKTKTGYKWLFKMGVGIDPKTGNRKTTTRRGFKTKKEAVAAAAEFQKEIDNNALARNDITFEDVFKEWWDVHSKTIKRSTRYRKLSNFKKHILPHFGKLKIKDITRAYCQKVINLIAQDIDSVQNVKIQANLVFKYALRMEYITKNPMEFVVIPKKEENFLSQEEEKRNFWEKDEIKTFLEKAHSQLAPQDYVMFYVLIFTGMRKGELIALEWKDVDLKEKTINIKQTMFFENGKEVIQTTKKYHSKRIITIDDQTAQILKKWRTQQKEMLLSNGITSEAKYVLIRGDMRPLRLAYPNDLLNRMITKNKLHRITIHGFRHSHASILFEAGASIKEVQARLGHKEIQTTMNIYTHVTKTAKAKTAETFKKYMEL	failed
MEAVIFDMDGVLMDTEPLYFEAYRRVAESYGKPYTEDLHRRIMGVPEREGLPILMEALEIKDSLENFKKRVHEEKKRVFSELLKENPGVREALEFVKSKRIKLALATSTPQREALERLRRLDLEKYFDVMVFGDQVKNGKPDPEIYLLVLERLNVVPEKVVVFEDSKSGVEAAKSAGIERIYGVVHSLNDGKALLEAGAVALVKPEEILNVLKEVL	not failed
MIRTAKLALVAAALSTTALSPLALAAPAPAQPAATASIAVPPIVYQQRVLANGMKVFTSRDTSTPNVSVQVWYGVGSKDDPQGRSGFAHLFEHLMFKATRNMPNETVDRLTEDVGGFNNASTWDDFTNYYEVVPANHLERLIWAEADRLKSLVIDEAVFASERDVVKEELRQRVLADPYGRFFALSIPQQSFAVHPYQRPGIGSIEELDAATVDDVRAFHRTYYRPDNAALIIVGNFDQTKLDAMIDKYFGSLTTPAGAIPKVTAVEPARTGPKTVNTYGPNVPLPALAITWLAPAAADKDAPALAVLDAILTAGKSSRLYDSLVYDQKIAQSVFSSAPNNAQPGLFYVGAIMAGGKTVAQGEAALRAQVARVRDGLVTPAELAEAKAGLLADAVRRREEIDGRGFAIGYALQTEGDAAAANSSLAKLQAVTAADIQRVARQYLADDRRTVINYLPEKDRPAGEKDATPPIPKVASVKYDGPITTLAPEAEREKPPAVAAPVPAVMPTPAEKTLANGLRVIVAKSSELPLITSTLTVKGGASSDPAGLAGTSSLTSELLTEGTATRSATQVARETEALGANLAAGSGWEAASLTLSVTANNADPAMAIMADVAQNPAFKTEELDRVRAETLDGLSVAFQRPGSLASFATSPVLYAGSAYGHVAGGTPGSLPKIKREDLAKTHAAYWRPDNAVLVVTGNLSPEAGFALAEKAFGGWKKPATPPPAPPAAPTGYQPRNVVIDLPGTGQAAVVLAKPAITRADPSYYQGVVANTVLGVGFSSRLNQEIRIKRGLSYGAGSSLTPQGQFGGFSARVQTKNPSAGEVISLTRAELSRLANEPASVGELAARKSVLVGGFGRDLGTSEGLAGILGNLAVYGVPLTEIQSYAAKVEAVTPEQVQAFAKAKLDPTQMSVIVAGDAKAMGEALAKVAPNATVIPAAKLDLDAPGLTQ	failed
MAQPKFVVAEIVEMEDHPDSDHLHICKVNVGFADPVQIVCGAPNAALGLKTVAALPGAMMPNGSLIFPGALRGVQSYGMLCSALEHHHHHH	failed
MQNMFDGVQLFVEVVEAGGFAKAGKRLSLTRSTIGKAIARLEMRLGVQLFQRTTRVQSLTEDGQQYYERCLRAIKELRAGEAMLEQGRREVAGRLHVSLPVLFGRQCVAPILRTYAREHPQLELELNFSDHHVDLIADGFDLAVRNGPLGNGTTLRARRLGNQRKILCASPTYLAARGKPHTLADLADHDLLTYCRNDRNMAWTLPDATGALVDIPITSRLRCNDLEVIADTAVDGMGVAWLPYWLLMERMQRGELIGIWGDRPSAVIECHVVWPAAQHVPLRSRLAINLLAAELPKYLEA	failed
MEKYQNLLVVIDPNQDDQPALRRAVYIVQRNGGRIKAFLPVYDLSYDMTTLLSPDERNAMRKGVINQKTAWIKQQARYYLEAGIQIDIKVIWHNRPYEAIIEEVITDKHDLLIKMAHQHDKLGSLIFTPLDWQLLRKCPAPVWMVKDKEWPEYGTIVVAANLSNEESYHDALNLKLIELTNDLSHRIQKDPDVHLLSAYPVAPINIAIELPDFDPNLYNNALRGQHLIAMKELRQKFSIPEEKTHVKEGLPEQVIPQVCEELNAGIVVLGILGRTGLSAAFLGNTAEQLIDHIKCDLLAIKPDGFTCPITVDSDNE	not failed
MQPRFLGQLGLADVVTVANAALGFIAAAVAVFDTELAARLILLAAIADGLDGVIARFRGGTPVGPILDSLADVASFGVAPAVLVYALASGGEVTLDEPLAVAAVVVAALYVAMAVVRLGFYLLEDDGAPETVGVQTTLAATVLSVLHLAGVTDPAVFVAATAAFAYLMVASITYPELYARDALILGGLQACVVLFPTAFGRAFPRVLLVFALGYLLLAPVAYWRSTEGKRS	failed
MSIRSLGYLRIEATDMAAWREYGLKVLGMVEGKGAPEGALYLRMDDFPARLVVVPGEHDRLLEAGWECANAEGLQEIRNRLDLEGTPYKEATAAELADRRVDEMIRFADPSGNCLEVFHGTALEHRRVVSPYGHRFVTGEQGMGHVVLSTRDDAEALHFYRDVLGFRLRDSMRLPPQMVGRPADGPPAWLRFFGCNPRHHSLAFLPMPTSSGIVHLMVEVEQADDVGLCLDRALRRKVPMSATLGRHVNDLMLSFYMKTPGGFDIEFGCEGRQVDDRDWIARESTAVSLWGHDFTVGARG	not failed
MPNYINYPSWLHPEVIQGIPITWYSLSYILIILISYKFIWYQIQSDNVDIKKEDYEIFMFSLVLGAILGGRLASTLVYDKSGIYYSNPWLILLPFDQHWNFTGFRGMAIHGGFLGAIIAPLITINTNLKNTNVQKYFLKLTDYGSIAFSSGYILGRLANFANAELYGRVMKGGIIFPNAEPFDTNIPGVKEFASSVGLEISPHDLLINLPRIPSQLIEGFFEGPVTFLLLWFLFKKIKKYDGFIFGVYVMLYAFFRFFIEYLREPDKELGFIITYKPITSLSEFSFLNISMGQILSLTLMLSGLIWIIVTKKIADKKIKNNTNLAYKN	failed
MLPGLKYIDRIGVDDVLVWLRKGIVWIVLAIVLCVGGALTYASMTPPRYKAYTDIVVNPSNLNVVNDGVFSPNQQRDTQILEVESKLRTITSRNVLARVVDELKLDQDPEFVSPPPLARLKAMFSSKPDDGDNRVGALRSLGDRVTAERDPRSFVVTLSVWTNDAEKSVAVSKAIVKAFESELFQTNSDSSQRVVDDLKKRLEEMRENVTIAEKRVADFRRENGLQENNGQLVSNLASGELNAQVLATQQRLIQEESRLKQMEAAIAQNRTQSDAIFDSQTMNTIRAQYSTLQQQIGAMTLTYGARHPRLATAGAERAMLERGMADEARRILQAAKINVAEARSSLDALRLKAVAERANVFTDNDAQVRLRDLDRDARSAAAIYETYLTRSRQLAEQQSIDSTNVRVISQPVAPNSRSWPPGKLTFLIAGGMGGLFLGLAIAVALGLWGYLRRDDHAEAAARYA	failed
MELRIMTGKLILLGFIIYQCVFSESDNLPWLVFSLLVYVCINLGIAILPKGKTKKLFIIISVIISIVSYAEVHPLFILFLPFTLCEGAADFGLPKWAVLAASIVPVLFINESISAVYALTAAFQFLLYWAASHDAARIEKLEHHIDQTRRDLQKLTNMLRENKEFIRQSEYTYKLEERNRLSQEIHDKIGHSMTGALIQLEAAKRVLDIDKEKASELLQNAINISKDGIENIRLTLKSVKPPSEQMGIHRLRLFIDECSAQYHMNISFLHKGDLDVISQIQWKIIFENITEALTNSVKYAEATHVSICIHVLNTLIKAEVKDNGKGRQKIKKGMGIIGMEERAASVNGKVIVDGSNGFSVTTLLPKHE	failed
MNKPLVVDLDGTLLRSDMLIESVLAYSKKGIRPVFHLPFWLLEGKAILKARLADRVDLSVEVLPYNTEVIDFIKQAKREQRQIVLATGTHKMFAEKIAEHLGLFDLVIATENGINLSARSKRDCLIDQFGEKGFDYIGNSHDDVVVWNAADKTYLADPEPGVKKKMDLQGGVARVFQTRQSSLRTFFRALRPHQWLKNLLLFIPLIASHQLTNITLIADALLAFVLFSMTASSGYLINDLLDLESDRYHPRKRNRPLASGELPILIGLISAPLLFLASLSASLILLSATFTISLVTYYLLSVVYSQYLKKIPLVDTIMLAGLYTVRILAGAFACSIIPTFWILAFSVFFFLSLAMLKRYAELLDLQTKGDTAKTSGRGYYPSDIQIIASLGTASGYLSILVLALYIQDARTIAMYKTHELIWLACPILLFWISRMWMLTHRGQMHDDPVLFAIKDRTSLITATLFACIFFLAILV	failed
TMNNEMSDPQIEEFYTIVKELEKFDTFTNFLDVHQPELAIVFGRTKRRVDELTSALISKGYKAEGLHGDITQAKRLEVLKKFKNDQINILVATDVAARGLDISGVSHVYNFDIPQDTESYTHRIGRTGRAGKEGIAVTFVNPIEMDYIRQIEDANGRKMSALRPPHRKEVLQAREDDIKEKVENWMSKESESRLKRISTELLNEYNDVDLVAALLQELVEANDEVEVQLTFEKPLSRKGRNGKPSGSR	failed
MLAKIIMKNFKSFKNETVIDFTRINYKFLENNVSNNGVLKGVAFYGANASGKSNVLWAIRFLLDELFGEEKNPVTFMKCLFSDEPEFSLQYFFVIESREIHYLIDFHTEKGIINEELYLDRKLLLQRMGSTAKSGITEKKVYTDLNNKVLFLRTVYFNTGFSGDDKDNNANNNILRQWFDYMQNSIYVNPFLHRGIAYGKQDVVLNKYLENEGVKEINRFFTKYNFEYTLDYLNERKVKDVTEIVNDDNIKLVFFNRKGVNVPIPYVLESHGNQNLLNILPCFLRVVQNSGMLLVDEFSGGLHNELERLLVNYFFLEHHHHHH	failed
MITILIFINIVKVVLFLFFLMTGTKIISGKMADEFKRFGLPSFFNFLTGAFEIVGAIGMLIGIWISTVALWAGLLLGGTMLAAALTLIVLARDPFKKAIPALVLFVLSLGISLYHIF	failed

From a protein production outcome set (Wang et al. 2014)
